Source: patent US20020197702

T1: DEVD-amc (Acetyl-Asp-Glu-Val-Asp-aminomethylcoumarin)
T1 chain: DEVD

T2: membrane derived procaspase-3, P42574
T2 chain: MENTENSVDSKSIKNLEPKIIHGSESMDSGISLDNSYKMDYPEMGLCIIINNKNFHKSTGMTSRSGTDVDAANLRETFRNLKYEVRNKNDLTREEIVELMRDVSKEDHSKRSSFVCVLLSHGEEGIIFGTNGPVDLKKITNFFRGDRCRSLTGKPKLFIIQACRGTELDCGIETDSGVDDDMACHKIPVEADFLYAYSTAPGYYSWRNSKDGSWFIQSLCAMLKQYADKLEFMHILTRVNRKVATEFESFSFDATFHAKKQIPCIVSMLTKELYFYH

B1: r-caspase-3 (His)6 (protein)
chain 1: SGISLDNSYKMDYPEMGLCIIINNKNFHKSTGMTSRSGTDVDAANLRETFRNLKYEVRNKNDLTREEIVELMRDVSKEDHSKRSSFVCVLLSHGEEGIIFGTNGPVDLKKITNFFRGDRCRSLTGKPKLFIIQACRGTELDCGIETD
chain 2: SGVDDDMACHKIPVEADFLYAYSTAPGYYSWRNSKDGSWFIQSLCAMLKQYADKLEFMHILTRVNRKVATEFESFSFDATFHAKKQIPCIVSMLTKELYFYHHHHHHH
B2: affinity purified membrane derived caspase-3 from 697 cell heavy membranes (protein)
chain 1: KNLEPKIIHGSESMDSGISLDNSYKMDYPEMGLCIIINNKNFHKSTGMTSRSGTDVDAANLRETFRNLKYEVRNKNDLTREEIVELMRDVSKEDHSKRSSFVCVLLSHGEEGIIFGTNGPVDLKKITNFFRGDRCRSLTGKPKLFIIQACRGTELDCGIETD
chain 2: SGVDDDMACHKIPVDADFLYAYSTAPGYYSWRNSKDGSWFIQSLCAMLKQYADKLEFMHILTRVNRKVATEFESFSFDATFHAKKQIPCIVSMLTKELYFYH
B3: recombinant murine caspase-1 (protein)
chain: NKEDGTFPGLTGTLKFCPLEKAQKLWKENPSEIYPIMNTTTRTRLALIICNTEFQHLSPRVGAQVDLREMKLLLEDLGYTVKVKENLTALEMVKEVKEFAACPEHKTSDSTFLVFMSHGIQEGICGTTYSNEVSDILKVDTIFQMMNTLKCPSLKDKPKVIIIQACRGEKQGVVLLKDSVRDSEEDFLTDAIFEDDGIKKAHIEKDFIAFCSSTPDNVSWRHPVRGSLFIESLIKHMKEYAWSCDLEDIFRKVRFSFEQPEFRLQMPTADRVTLTKRFYLFPGH

What was measured:
[1] = target: T1, DEVD-amc …
[2] = target: T2, membrane derived procaspase-3, P42574

Row | Protein | kcat/KM for DEVD-AMC hydrolysis [1] | KM for DEVD-AMC hydrolysis [1] | activation of DEVD-AMC hydrolysis activity in heavy membranes [2] | time course of activation of DEVD-AMC hydrolysis activity [2]
1 | B1 | the kcat/KM value for the recombinant caspase-3 (1,200,000 M^-1sec^-1) |  |  | 
2 | B2 | must be >=400,000 M^-1sec^-1 | The observed KM value for the purified caspase (10 uM) |  | 
3 | B3 |  |  | Treatment with recombinant caspase-1 causes a rapid, robust activation of the membrane caspase | The lack of a detectable time lag in the time course plot
